According to US6680177B2, “Low molecular weight heparin assay, system and reagent therefor” (Cardiovascular Diagnostics, Inc., priority 2001, dated 2004):
Numbering of substitutions follows the chain as printed.

B1: Alteplase (protein, UniProt P00750 36-562, looked up)
Tissue-type plasminogen …: SYQVICRDEKTQMIYQQHQSWLRPVLRSNRVEYCWCNSGRAQCHSVPVKSCSEPRCFNGGTCQQALYFSDFVCQCPEGFAGKCCEIDTRATCYEDQGISYRGTWSTAESGAECTNWNSSALAQKPYSGRRPDAIRLGLGNHNYCRNPDRDSKPWCYVFKAGKYSSEFCSTPACSEGNSDCYFGNGSAYRGTHSLTESGASCLPWNSMILIGKVYTAQNPSAQALGLGKHNYCRNPDGDAKPWCHVLKNRRLTWEYCDVPSCSTCGLRQYSQPQFRIKGGLFADIASHPWQAAIFAKHRRSPGERFLCGGILISSCWILSAAHCFQERFPPHHLTVILGRTYRVVPGEEEQKFEVEKYIVHKEFDDDTYDNDIALLQLKSDSSRCAQESSVVRTVCLPPADLQLPDWTECELSGYGKHEALSPFYSERLKEAHVRLYPSSRCTSQHLLNRTVTDNMLCAGDTRSGGPQANLHDACQGDSGGPLVCLNDGRMTLVGIISWGLGCGQKDVPGVYTKVTNYLDWIRDNMRP
modifications: alteplase
notes: fibrinolytic agent tested as interferent
B2: Tenecteplase (protein, UniProt P00750 36-562, looked up, variant T103N N117Q K296A H297A R298A R299A)
Tissue-type plasminogen …: B1 Tissue-type plasminogen … with T103N, N117Q, K296A, H297A, R298A, R299A
modifications: tenecteplase
notes: as for B1
B3: Abciximab (antibody, chains of the INN, looked up, V domains shown)
VH: EVQLQQSGTVLARPGASVKMSCEASGYTFTNYWMHWVKQRPGQGLEWIGAIYPGNSDTSYIQKFKGKAKLTAVTSTTSVYMELSSLTNEDSAVYYCTLYDGYYVFAYWGQGTLVTVSA
VL: EIVLTQSPVTLSVTPGDSVSLSCRASRDISNNLHWFQQTSHESPRLLIKYASQSMSGIPSRFSGSGSGTDFTLSINSVETEDFGMYFCQQTNSWPYTFGGGTKLEIK
modifications: Fab
notes: antiplatelet agent tested as interferent

Tested on: citrated whole blood (CWB)
Assay: Interference testing for Rapidpoint ENOX test in citrated whole blood
Assay type: biochemical
Settings: for EFFECT on ENOX test: CWB; for sensitivity of the ENOX test to the agent: in vitro, citrated whole blood

| Molecule | EFFECT on ENOX test (1000-3200 ng/ml) | sensitivity of the ENOX test to the agent | EFFECT on ENOX test (0-10,000 ng/ml) | EFFECT on ENOX test (0-3600 ng/ml) |
| --- | --- | --- | --- | --- |
| B1 | No effect at 1000-3200 ng/ml | insensitive | – | – |
| B2 | – | insensitive | No effect at 0-10,000 ng/ml | – |
| B3 | – | insensitive | – | No effect at 0-3600 ng/ml |
